Laboratory results as given in PMC6441110, “A novel 3-hydroxypropionic acid-inducible promoter regulated by the LysR-type transcriptional activator protein MmsR of Pseudomonas denitrificans” (Scientific Reports, 2019).
Values belong to the molecule of their own block, whether it stands above or below them.

How the values were obtained:
[1] = target: MmsR, LysR-type transcriptional activator protein of Pseudomonas denitrificans, tagged with six histidine residues at the C-terminus (Pseudomonas denitrificans ATCC 13867); assay: native gel or EMSA + SEC; native PAGE and/or gel filtration of purified His-tagged MmsR at the high concentration of 550 nM; monomer to dimer
MmsR = target: T1, MmsR (Pseudomonas denitrificans (nom. rej.), UniProt A0A9X7MYS1); assay: EMSA with mmsA promoter DNA, purified MmsR with and without inducer; conditions: 25 mM 3-HP; 40 nM DNA probe; pH 7.4, 750 mM KCl; effector of DNA binding (inducer)
T1 construct: gene F1C79_09590; cell rows: native chromosomal MmsR; gene divergent from mmsA
T1 sequence (A0A9X7MYS1 1-298): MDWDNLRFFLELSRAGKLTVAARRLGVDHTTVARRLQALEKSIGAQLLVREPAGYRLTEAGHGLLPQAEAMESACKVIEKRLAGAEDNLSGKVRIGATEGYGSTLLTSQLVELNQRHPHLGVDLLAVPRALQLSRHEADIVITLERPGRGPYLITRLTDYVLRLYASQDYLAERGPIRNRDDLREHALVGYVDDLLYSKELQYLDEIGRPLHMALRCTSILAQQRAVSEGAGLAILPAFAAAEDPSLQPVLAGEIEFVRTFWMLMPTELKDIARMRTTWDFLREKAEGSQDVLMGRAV

[2] = target: T2, MmsR (LysR-type transcriptional activator, C4-LysR) (Pseudomonas denitrificans ATCC 13867, UniProt A0A9X7MYS1 1-298); assay: EMSA; no 3-HP; stronger shift than F1M2; 50 mM Tris pH 7.4, 750 mM KCl (1X as printed), 0.5 mM DTT, 0.5 mM EDTA, room temperature; EMSA 40 nM DNA, 0-48.5 nM MmsR, 30 min; footprinting 230 nM DNA, 0-1.2 uM MmsR; conditions: protein: recombinant; tags: C-terminal His6 (pET30b+); chain copies: 2; label: none (SYBR Green stain); blunt
T2 sequence: T1 sequence (A0A9X7MYS1 1-298)

[3] = target: T2, MmsR (LysR-type transcriptional …); assay: DNase I footprinting; no 3-HP; O1 more protected than O2; 50 mM Tris pH 7.4, 750 mM KCl (1X as printed), 0.5 mM DTT, 0.5 mM EDTA, room temperature; EMSA 40 nM DNA, 0-48.5 nM MmsR, 30 min; footprinting 230 nM DNA, 0-1.2 uM MmsR; conditions: protein: recombinant; tags: C-terminal His6 (pET30b+); chain copies: 2; blunt
[4] = target: T2, MmsR (LysR-type transcriptional …); assay: EMSA; no 3-HP; 50 mM Tris pH 7.4, 750 mM KCl (1X as printed), 0.5 mM DTT, 0.5 mM EDTA, room temperature; EMSA 40 nM DNA, 0-48.5 nM MmsR, 30 min; footprinting 230 nM DNA, 0-1.2 uM MmsR; conditions: protein: recombinant; tags: C-terminal His6 (pET30b+); chain copies: 2; label: none (SYBR Green stain); blunt

stoichiometry N [1]: 2
Molecule: MmsR, LysR-type transcriptional activator protein of Pseudomonas denitrificans, tagged with six histidine residues at the C-terminus (natural protein)

Molecule: O=C(O)CCO [compound 1, 3-hydroxypropionic acid]
EMSA with mmsA promoter DNA, purified MmsR with and without inducer (MmsR): 3-HP promotes the binding affinity between MmsR and the PmmsA promoter

B1: F12M (O1 intact, O2 mutant) (dsDNA)
DNA 1: GTCAGCCTCAGCGCACCTCGAATGTGCAAAAACGCAGACCATACTTGCACATCACCGCATTGAGTACATCAATCCTTGCTTGTTAGGATCGCGCCCAGGCACAAAAAAGCCACAGGCTGGGAGAATCCCG
DNA 2: CGGGATTCTCCCAGCCTGTGGCTTTTTTGTGCCTGGGCGCGATCCTAACAAGCAAGGATTGATGTACTCAATGCGGTGATGTGCAAGTATGGTCTGCGTTTTTGCACATTCGAGGTGCGCTGAGGCTGAC
binding result [2]: binds

B2: 169 bp footprinting fragment (dsDNA)
DNA 1: CCGCAGGTTGTCCCAGTCCATGTCAGCCTCAGCGCACCTCGAATGTGCAAAAACGCAGACCATACTTGCACATCACCGCATTGAGTACATCAAAAATGCACTGTTAGGATCGATCCAGACAACAAAAAAGCCACAGGCTGGGAGAATCCCGATGACCGCAACTGCCCCG
DNA 2: CGGGGCAGTTGCGGTCATCGGGATTCTCCCAGCCTGTGGCTTTTTTGTTGTCTGGATCGATCCTAACAGTGCATTTTTGATGTACTCAATGCGGTGATGTGCAAGTATGGTCTGCGTTTTTGCACATTCGAGGTGCGCTGAGGCTGACATGGACTGGGACAACCTGCGG
binding result [3]: binds

B3: F12 (O1 and O2 intact) (dsDNA)
DNA 1: GTCAGCCTCAGCGCACCTCGAATGTGCAAAAACGCAGACCATACTTGCACATCACCGCATTGAGTACATCAAAAATGCACTGTTAGGATCGATCCAGACAACAAAAAAGCCACAGGCTGGGAGAATCCCG
DNA 2: CGGGATTCTCCCAGCCTGTGGCTTTTTTGTTGTCTGGATCGATCCTAACAGTGCATTTTTGATGTACTCAATGCGGTGATGTGCAAGTATGGTCTGCGTTTTTGCACATTCGAGGTGCGCTGAGGCTGAC
binding result [4]: binds
